# ± gives the standard error. Variants at the floor of the assay were thinned out.
# B1: glmS ribozyme (parent)
# chain: AUAAAAGCGCCAGAACUACAGAAAUGUAGUUGACGAGGAGGAGGUUUAUCGAAUUUUCGGCGGAUGCCUCCAAA
# Variants of: B1
# Assay: self-cleavage kobs at 10000 uM GlcN6P; higher = faster cleavage; RNA array
# Settings: with glucosamine-6-phosphate
# Summary of the method: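 The measurements used barcoded ribozyme variants on sequenced MiSeq chips, transcribed in situ by E. coli RNA polymerase and tracked at 37 °C with a hybridised Cy3 probe. Glucosamine-6-phosphate, 40 μM to 10 mM in HEPES/KCl/Mg(OAc)2 buffer, was flowed in while tiles were imaged over ~14 h. Baseline-normalised signals, also normalised to non-cleaving reference variants, gave per-tile medians that were fit to one- or two-exponential decays for kobs. kcat and KM resulted from weighted Michaelis–Menten fits across concentrations.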
row,Variant,self-cleavage kobs at 10000 uM GlcN6P
1,G37C G41A G51U G62U C67A,< 1e-05 s⁻¹
2,A39C G40U G59C C70U,< 1e-05 s⁻¹
3,G37A U56C G66U,2.45e-05 ± 1.1e-05 s⁻¹
4,A33G G40U A52G C58A,< 1e-05 s⁻¹
5,C34U U49C C50G C61U C68G C71G,0.000303 ± 7.9e-05 s⁻¹
6,A48U C61A C70G,< 1e-05 s⁻¹
7,C50U C58A C67U,< 1e-05 s⁻¹
8,U30G G51U U55C C61A,< 1e-05 s⁻¹
9,G35A G60C C61G A64C G66A,< 1e-05 s⁻¹
10,U30G U46C G51U C71U,< 1e-05 s⁻¹
11,U56A C58A C67G,7.18e-05 ± 2.4e-05 s⁻¹
12,C34A U46A G51A,< 1e-05 s⁻¹
13,G43U U55G,3.47e-05 ± 1.3e-05 s⁻¹
14,G44A U56A A64G,0.000101 ± 2.4e-05 s⁻¹
15,A39G C61A G62U,< 1e-05 s⁻¹
16,U31A U46G U56G,0.00127 ± 0.00022 s⁻¹
17,A36G A64G C70G,< 1e-05 s⁻¹
18,G40A G44U A64C,< 1e-05 s⁻¹
19,G32C G66A,7.35e-05 ± 1.4e-05 s⁻¹
20,G35U G40C G59C G62A U69C,< 1e-05 s⁻¹
21,G63A A64U C68U,< 1e-05 s⁻¹
22,G32A U55C G60U C61U,< 1e-05 s⁻¹
23,G35C U47A G66U,< 1e-05 s⁻¹
24,A42G U45C U46C,0.00102 ± 0.00019 s⁻¹
25,A33C G44A A48U,< 1e-05 s⁻¹
26,G35C U45A C58G,< 1e-05 s⁻¹

row,Variant,self-cleavage kobs at 10000 uM GlcN6P
1,G38A C61A C71U,< 1e-05 s⁻¹
2,G37C G51A U69A,< 1e-05 s⁻¹
3,G35U A53U U56A,< 1e-05 s⁻¹
4,G37C U54G,3.98e-05 ± 8.6e-06 s⁻¹
5,G38U G41U A48U A52G U56C G60A C68G C71U,< 1e-05 s⁻¹
6,A33C U45G,4.71e-05 ± 1e-05 s⁻¹
7,A33U C50G C61A C70U,6e-05 ± 1.8e-05 s⁻¹
8,A39C A42U U46G,3.93e-05 ± 1.5e-05 s⁻¹
9,A39C U57A C58G G63U,< 1e-05 s⁻¹
10,A33C G43U U49C C68U,< 1e-05 s⁻¹
11,A42U G62A U69G,< 1e-05 s⁻¹
12,A52U G66U C67A,8.48e-05 ± 2.8e-05 s⁻¹
13,U31C G40C A53G,0.000261 ± 9.7e-05 s⁻¹
14,C50U U55C,4.47e-05 ± 1.1e-05 s⁻¹
15,U54C C58G G63C,< 1e-05 s⁻¹
16,A36C U54C G60U C61A G62U,< 1e-05 s⁻¹
17,U47G A48U C68U,9.1e-05 ± 1.8e-05 s⁻¹
18,U45C U49G,3.08e-05 ± 1.4e-05 s⁻¹
19,G43U U46G C50U C58A,< 1e-05 s⁻¹
20,U31A A33U G35U G38U,< 1e-05 s⁻¹
21,G43U G62A,< 1e-05 s⁻¹
22,G37A G43U U55G C68G,0.000281 ± 7.9e-05 s⁻¹
23,G43A G59C C67G,< 1e-05 s⁻¹
24,U54A G60A,3.42e-05 ± 1.5e-05 s⁻¹
25,U31C C58U G63C,< 1e-05 s⁻¹
26,C61A U69C,< 1e-05 s⁻¹

row,Variant,self-cleavage kobs at 10000 uM GlcN6P
1,G32U G37U G43A A52G C67U,< 1e-05 s⁻¹
2,A39G G44U C71U,3.94e-05 ± 1.7e-05 s⁻¹
3,G38U U45A C58A U65C,< 1e-05 s⁻¹
4,G37U G38A U45G G51A,< 1e-05 s⁻¹
5,U31C A39C G40U G60U,< 1e-05 s⁻¹
6,C50U G59U A64U,< 1e-05 s⁻¹
7,A33G U47A C70U,< 1e-05 s⁻¹
8,U57C C58A,2.32e-05 ± 9.2e-06 s⁻¹
9,A42U U65G U69G,0.00259 ± 0.00036 s⁻¹
10,A53U U65G C67U,0.00235 ± 0.00042 s⁻¹
11,A36G A48G C70A,< 1e-05 s⁻¹
12,A39C G51A C58U G62U,< 1e-05 s⁻¹
13,G35A A52C U55C,< 1e-05 s⁻¹
14,A33C U45C U65C,< 1e-05 s⁻¹
15,G37C G63U,< 1e-05 s⁻¹
16,G38A A39U U54A,< 1e-05 s⁻¹
17,U54C G59A,8.08e-05 ± 1.3e-05 s⁻¹
18,U56A C67U C71G,5.21e-05 ± 8.7e-06 s⁻¹
19,A39C G44A G59C,< 1e-05 s⁻¹
20,C34U A36C,< 1e-05 s⁻¹
21,G32U U47G C70G,0.00012 ± 3.4e-05 s⁻¹
22,G40A G59U C61A,< 1e-05 s⁻¹
23,C34A G35A G40U G41C U46G,< 1e-05 s⁻¹
24,A39U U49G U54G,0.00053 ± 0.00012 s⁻¹
25,C50A U55G U57C,< 1e-05 s⁻¹
26,C61U G62U C67U,< 1e-05 s⁻¹

row,Variant,self-cleavage kobs at 10000 uM GlcN6P
1,A33C C68G,< 1e-05 s⁻¹
2,G38U A52U C58U,< 1e-05 s⁻¹
3,G66A C68U C71A,0.000105 ± 1.9e-05 s⁻¹
4,U47C U65G C71U,0.00338 ± 0.00055 s⁻¹
5,A39G C67A C68A,6.69e-05 ± 1.7e-05 s⁻¹
6,G40A A53G C70A,0.000157 ± 3.7e-05 s⁻¹
7,G38U U49C G63A,< 1e-05 s⁻¹
8,U45C U54G C70A,5.88e-05 ± 1.3e-05 s⁻¹
9,U31G C58U,9.69e-05 ± 1.1e-05 s⁻¹
10,U47G G66C,0.000614 ± 0.00011 s⁻¹
11,G44U A64C C70U,< 1e-05 s⁻¹
12,A39C U46A U55A U57A,< 1e-05 s⁻¹
13,A33C A52C U57G G63A,< 1e-05 s⁻¹
14,U31C G66C,8.11e-05 ± 1.3e-05 s⁻¹
15,G40C A53U C61A,< 1e-05 s⁻¹
16,A39U G51U C70A,< 1e-05 s⁻¹
17,U45A A52U C61A,< 1e-05 s⁻¹
18,G37A G51U C68G,< 1e-05 s⁻¹
19,G32A A39U C68U,0.000655 ± 0.00014 s⁻¹
20,G38U A53U,< 1e-05 s⁻¹
21,A52G U65G C71G,2.3e-05 ± 1.1e-05 s⁻¹
22,U30G A33C A48C C71U,< 1e-05 s⁻¹
23,G44U U57G G66A C70G,< 1e-05 s⁻¹

# From the supplement of paper PMC7125110
